The source of these data is publication doi:10.1101/577437 (bioRxiv, 2019).

The target in this test is T1, RALA (residues 1-183) (UniProt P11233 1-183).
T1 sequence: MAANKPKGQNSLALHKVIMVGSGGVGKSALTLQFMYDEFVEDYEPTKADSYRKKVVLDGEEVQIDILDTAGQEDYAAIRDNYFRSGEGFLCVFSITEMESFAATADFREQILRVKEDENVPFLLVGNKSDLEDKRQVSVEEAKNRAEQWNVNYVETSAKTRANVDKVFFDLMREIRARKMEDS
The test is described as follows: NMR titration.

B1: human RLIP76 RBD (residues 395-517) (domain or fragment)
chain: QAGIKEEIRRQEFLLNCLHRDLQGGIKDLSKEERLWEVQRILTALKRKLREAKRQECETKIAQEIASLSKEDVSKEEMNENEEVINILLAQENEILTEQEELLAMEQFLRRQIASEKEEIERL
As to B1, the binding result was “binds”.
